This is an account of results in publication doi:10.1101/2023.08.10.552813.

Common to all, as to assay: SPR
Assay [1] addresses HpARI_CCP2/3 (HpARI with CCP1 truncated) (Heligmosomoides polygyrus bakeri).
Assay [2] concerns the target Heligmosomoides polygyrus Alarmin Release Inhibitor (HpARI), full-length (Heligmosomoides polygyrus bakeri).
The target of assay [3] is HpARI_CCP1/2 (HpARI with CCP3 truncated) (Heligmosomoides polygyrus bakeri).
The target in assay [4] is HpARI-LD (full-length HpARI with residues 180-188 of the CCP3 loop deleted) (Heligmosomoides polygyrus bakeri).
Assay [5] has as its target mouse Interleukin 33 (residues 112-270) (mouse).

HpARI_CCP2/3 (HpARI with CCP1 truncated) (Heligmosomoides polygyrus bakeri), sequence (A0A3P7XL18 63-297): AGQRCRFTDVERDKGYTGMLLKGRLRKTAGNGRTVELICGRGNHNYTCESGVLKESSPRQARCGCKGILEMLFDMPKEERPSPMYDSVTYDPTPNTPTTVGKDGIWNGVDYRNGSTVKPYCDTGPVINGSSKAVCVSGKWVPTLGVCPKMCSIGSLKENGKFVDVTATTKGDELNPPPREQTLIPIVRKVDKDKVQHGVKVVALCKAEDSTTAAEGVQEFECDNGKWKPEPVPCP

mouse IL-33 R159A (ligand) registered a fold reduction in binding affinity against wild-type mIL-33 in assay [1] of 1000 fold.
Broadly, the Kd is the constant that tells how readily two partners part at equilibrium. The low end stands for tighter binding, the high end for weaker binding. Turning to “mouse Interleukin 33 (residues 112-270) (ligand)”, the Kd in assay [2] stood at 0.048 nM; in assay [3], 49 nM; in assay [4] it was 45 nM; in assay [1], 4 nM. The substance further came in with a koff, fold over that of full-length HpARI in assay [3] greater than 100 fold.
In assay [5], “HpARI-LD (full-length HpARI with residues 180-188 of the CCP3 loop deleted) (natural protein)” gave a percent reduction of mIL-33 binding against HpARI of 60% and a percent reduction of mIL-33 binding to ST2-Fc of 25%.
